Reference: the supplement of paper PMC9170038

Legend:
[1] = test system: MS2 coat protein; assay: apparent KD of MS2 coat protein, switch OFF state (with FMN for OFF switches, without FMN for ON switches); designed switch direction (-1 OFF switch, 1 ON switch): 1; higher = weaker reporter binding; settings: FMN input: 0 or 200 uM; Eterna round: R93 (includes R88 designs)
Method in brief: (§1)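 Designed RNA switches were transcribed on-chip from Illumina sequencing clusters. SNAP-549-labelled MS2 coat protein was titrated onto them in twofold steps from 0.7 or 1.5 nM to 3 µM in 100 mM Tris-HCl pH 7.5, 80 mM KCl, 4 mM MgCl2, either without or with constant ligand. Apparent KD reflects the per-design median of normalised cluster binding-curve fits.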

[2] = test system: MS2 coat protein; assay: apparent KD of MS2 coat protein, switch ON state; designed switch direction (-1 OFF switch, 1 ON switch): 1; higher = weaker reporter binding; settings: FMN input: 0 or 200 uM; Eterna round: R93 (includes R88 designs)
Method in brief: as §1

Sequence | apparent KD of MS2 coat protein [1] [nM] | apparent KD of MS2 coat protein [2] [nM]
CGGAGACAUGAGGAUCACCCAUGUGAGAAGAGGCGAGGAUAUGGAAAUAAAGAAGAGAAAUGAGAAGGCGCGAGCC [salish99-SS1-082] | 36.3 | 40.6
CUGGACAUAGUAUAGGAUAUAUGAAUAAUUACAUGAGGAUCACCCAUGUCCAUUUAUAUGGGAACAUAGAAGGGUGGUAGUUAAG [Mat - Same state - Malcolm Mod - D142] | 97.6 | 147
GAAAAACAUGAGGAUCACCCAUGUAAAAAUAUGGGAGGAUAUUCAAAGACGAAAGGGAAAGAAGAAGGCCUAAAAG [Garnet 4] | 1300 | 82.7
GAAAAACAUGAGGAUCACCCAUGUAAAAAUAUGGGAGGAUAUUGAAAGACGAAAGUCAAACAAGAAGGCCUAAAAG [Garnet 2] | 119 | 22.2
GAAAAACAUGAGGAUCACCCAUGUAGAAAUAUGGGAGGAUAUACAAAGACGAAAGUCAAAGUAGAAGGCCUGAAAG [77%, Mat - Mod of Eli, 1] | 136 | 27.1
GAAAAACAUGAGGAUCACCCAUGUAGAAAUAUGGGAGGAUAUACAAAGACGAAAGUCAAAGUAGAAGGCCUUAAAG [JL S1 M-MoE mod 1 In the Red] | 54.9 | 28.3
GAAAAACAUGAGGAUCACCCAUGUAGAGAUAUGGGAGGAUAUACGAAGACGAAAGACGAUGUAGAAGGCCUAAAAG [Garnet 59] | 234 | 80.4
GAAAAACAUGAGGAUCACCCAUGUGUAAAUAUGGAAGGAUAUACAAAGACGUAAGUCAAAGUAGAAGGUCUAAAAG [Mat - Same State 1 - Eli mod - D17] | 23.5 | 18.8
GAAAAACAUGAGGAUCACCCAUGUGUAAAUAUGGGAGGAUAUACAAAGACGAAAGUCAAAGUAGAAGGCCUAAAAG [Mat - Same State 1 - Eli mod - D5] | 190 | 23.2
GAACCACAUGAGGAUCACCCAUGUCAAAGAAAUCAAGGAUAUGCACAAAAGGAAAUAACUGCAGAAGGUGAACGAA [62%, Redo, 1] | 40.9 | 22.6
GAACCACAUGAGGAUCACCCAUGUCUAAAUAUGGGAGGAUAUGCACAAAAGGAAAUAACUGCAGAAGGCCUACGAA [62%, Redo, 3] | 135 | 25.7
GAAGACAUAGUUCAGGAUAUAGGAAUAGUCACAUGAGGAUCACCCAUGUGCAUUUAUAUGCGCACUUAGAAGGGAGGUAGUUAUA [SameState2 Malc#22] | 26.4 | 32.2
GAAGACAUAGUUCAGGAUAUAGGAAUAGUCACAUGAGGAUCACCCAUGUGCAUUUAUAUGCGCGCUUAGAAGGGAGGUAGAUAAU [Mat - Same state - Malcolm Mod - D119] | 21.2 | 24.5
GAAGACAUAGUUCAGGAUAUGGUAAUAGUCACAUGAGGAUCACCCAUGUGCAUUUAUAUGCGCGAUCAGAAGGGAGGUAGAUAAG [Mat - Same state - Malcolm Mod - D116] | 18.3 | 18.6
GAGGACAUAGUAUAGGAUAUAUGAAUAAUUACAUGAGGAUCACCCAUGUCCAUUUAUAUGGGAACAUAGAAGGGUGGUAGUUGUC [Mat - Same state - Malcolm Mod - D130] | 200 | 73
GAUAAACAUGAGGAUCACCCAUGUAGAAAUAUGGGAGGAUAUACGAAGACGAAAGUCAAAGUAGAAGGCCUAAAAG [Mat - Same State 1 - Eli mod - D114] | 52.6 | 23.9
GAUAUACAUGAGGAUCACCCAUGUUAGGUGGGUCAAGGAUAUUGAUAUAAAUAAAAAACUCGAGAAGGUGAAUAAA [JR_SS001_Sub020] | 153 | 298
GCAAAACAUGAGGAUCACCCAUGUCAACAAAAUCAAGGAUAUGAGCCAGCAAUGCCGGCAUCAGAAGGUGAACCUU [Enqule] | 68.5 | 53.2
